Laboratory results as given in US10894811B2, “Peptide inhibitors of calcium channels” (The University of North Carolina at Chapel Hill, priority 2016, dated 2021).
Entries after “also recorded” stand apart in the source; their conditions may differ.

Key:
Orai1 [1] = target: T1, Orai1 (Homo sapiens, UniProt Q96D31); assay: Surface biotinylation / immunoblot of plasma membrane Orai1; format: cell-based; conditions: ASMC, after 4 h of SPLUNC1 exposure
Description: Surface biotinylation: hASMCs were treated with or without SPLUNC1 for 4 h. Cells were then washed with prechilled PBS^++ (phosphate buffered saline supplemented with 1 mM CaCl2 and 1 mM MgCl2), and then labeled with 0.5 mg/ml sulfo-NHS-biotin (Thermo) in borate buffer (85 mM NaCl, 4 mM KCl, 15 mM Na2B4O7, pH 9.0) while tumbling gently for 30 min on ice. hASMCs were incubated in PBS^++ buffer supplemented with 10% FBS for 20 min at 4° C. to quench free biotin. Cells were washed again three times with chilled PBS^++ and proteins were extracted as previously using lysis buffer (0.4% sodium deoxycholate, 1% NP-40, 50 mM EGTA, 10 mM Tris-Cl, pH 7.4) supplemented with 1×PIC. Total inputs were taken from whole cell samples representing 4% of total protein. Solubilized proteins were incubated with 100 μl of neutravidin beads (Pierce) overnight while rotating at 4° C. Samples were washed three times with lysis buffer. Bead-bound proteins were then eluted and SDS-polyacrylamide gels, and subjected to immunoblot analysis.

Orai1 [2] = target: T1, Orai1; assay: Co-immunoprecipitation in HEK293T cell lysates (V5-SPLUNC1 / HA-Orai1); format: binding; design: expressed in transfected cells; host or cells: HEK293T; conditions: HEK293T cells cotransfected with V5-SPLUNC1 and HA-Orai1
Description: DNA constructs: Yellow fluorescent protein (YFP) tagged human Orai1 and Myc tagged TRPC3 were gifts from Dr. Craig Montell (Addgene plasmid #25902) and Dr. Anjana Rao (Addgene plasmid #19756), respectively. HA tagged human Orai1 was a generous gift from Dr. Patrick G Hogan at La Jolla Institute for Allergy & Immunology. pcDNA3.1(+)-V5-SPLUNC1 was a generous gift from Dr. Colin D Bingle at the University of Sheffield.
For immunoprecipitation, cell lysates were collected at 48 h post-transfection in Pierce® IP lysis buffer in the presence of 1× protease inhibitor cocktail (PIC) (Roche). Cell lysates were pre-cleared with protein A/G agarose beads and then incubated with 1 μg of antibodies against HA (BioLegend) or V5 (Invitrogen) with protein A/G agarose beads on a rotator at 4° C. overnight. After three washes with IP lysis buffer, immunoprecipitated complexes were eluted in sample buffer (50 mM Tris-HCl [pH 6.8], 2% sodium dodecyl sulfate (SDS), 10% glycerol, 5% (v/v) β-mercaptoethanol (BME), 0.1% bromophenol blue) by heating the samples at 95° C. for 5 min, electrophoresed through SDS-polyacrylamide gels, and subjected to immunoblot analysis.

T1 sequence (Q96D31 whole entry): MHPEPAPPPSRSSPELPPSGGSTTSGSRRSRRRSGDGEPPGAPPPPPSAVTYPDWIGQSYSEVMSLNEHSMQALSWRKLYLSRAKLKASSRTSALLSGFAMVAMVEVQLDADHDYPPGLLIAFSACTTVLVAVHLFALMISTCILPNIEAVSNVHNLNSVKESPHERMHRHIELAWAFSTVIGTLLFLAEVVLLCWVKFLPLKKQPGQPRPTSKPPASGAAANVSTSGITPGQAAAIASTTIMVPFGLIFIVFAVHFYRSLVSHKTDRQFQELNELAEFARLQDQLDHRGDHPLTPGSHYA

B1: SPLUNC1: Short palate, lung and nasal epithelium clone 1, recombinant full length protein (protein, listed as Homo sapiens)
chain: MFQTGGLIVFYGLLAQTMAQFGGLPVPLDQTLPLNVNPALPLSPTGLAGSLTNALSNGLLSGGLLGILENLPLLDILKPGGGTSGGLLGGLLGKVTSVIPGLNNIIDIKVTDPQLLELGLVQSPDGHRLYVTIPLGIKLQVNTPLVGASLLRLAVKLDITAEILAVRDKQERIHLVLGDCTHSPGSLQISLLDGLGPLPIQGLLDSLTGILNKVLPELVQGNVCPLVNEVLRGLDITLVHDIVNMLIHGLQFVIKV
decrease of plasma membrane Orai1 levels (Orai1 [1]): ~50%
co-immunoprecipitation with Orai1 (Orai1 [2]): could be co-immunoprecipitated; also recorded: interacting with Orai1
